Experimental data from patent US20190085081A1 (CANCER RESEARCH TECHNOLOGY, published 2019).

T1: murine CLEC14A-Fc (mouse, UniProt Q8VCP9 22-386, limits assumed)
T1 construct: Murine CLEC14A protein with a human Fc tag, made in HEK293T cells; also called CM; mCLEC14A-Fc; not shown: human Fc tag
T1 sequence (looked up): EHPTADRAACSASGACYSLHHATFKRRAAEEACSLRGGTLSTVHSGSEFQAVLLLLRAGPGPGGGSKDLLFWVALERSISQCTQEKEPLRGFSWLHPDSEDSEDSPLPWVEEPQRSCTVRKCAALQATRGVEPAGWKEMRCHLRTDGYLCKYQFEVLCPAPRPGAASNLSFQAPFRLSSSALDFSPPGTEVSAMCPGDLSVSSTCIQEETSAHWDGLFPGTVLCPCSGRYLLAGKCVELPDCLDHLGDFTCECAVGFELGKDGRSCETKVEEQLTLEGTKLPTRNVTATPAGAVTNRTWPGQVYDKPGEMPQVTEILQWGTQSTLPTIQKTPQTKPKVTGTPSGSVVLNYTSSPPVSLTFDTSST

T2: CLEC14A wild type with a C terminal GFP tag (human, UniProt Q86T13 22-490)
T2 construct: Expressed in HEK293T cells; GFP-positive cells gated; also called WT CLEC14A; not shown: C-terminal GFP tag
T2 sequence: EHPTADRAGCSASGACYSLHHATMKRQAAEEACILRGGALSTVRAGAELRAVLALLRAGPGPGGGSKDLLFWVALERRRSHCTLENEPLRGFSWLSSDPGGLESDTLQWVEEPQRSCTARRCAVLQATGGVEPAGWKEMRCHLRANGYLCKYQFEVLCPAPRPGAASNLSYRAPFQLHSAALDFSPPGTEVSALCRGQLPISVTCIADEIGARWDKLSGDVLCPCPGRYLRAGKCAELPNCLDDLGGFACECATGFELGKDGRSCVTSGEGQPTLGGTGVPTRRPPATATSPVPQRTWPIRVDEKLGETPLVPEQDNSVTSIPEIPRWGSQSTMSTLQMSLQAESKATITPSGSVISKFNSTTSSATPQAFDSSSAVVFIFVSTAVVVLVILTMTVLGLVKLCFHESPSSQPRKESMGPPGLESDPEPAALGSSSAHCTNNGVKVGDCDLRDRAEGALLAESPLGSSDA

T3: human CLEC14A-ECD-Fc (human, UniProt Q86T13 22-396)
T3 construct: also called CLEC14A-Fc; hCLEC14A-Fc; not shown: human Fc tag from the pcDNA3-Fc plasmid
T3 sequence: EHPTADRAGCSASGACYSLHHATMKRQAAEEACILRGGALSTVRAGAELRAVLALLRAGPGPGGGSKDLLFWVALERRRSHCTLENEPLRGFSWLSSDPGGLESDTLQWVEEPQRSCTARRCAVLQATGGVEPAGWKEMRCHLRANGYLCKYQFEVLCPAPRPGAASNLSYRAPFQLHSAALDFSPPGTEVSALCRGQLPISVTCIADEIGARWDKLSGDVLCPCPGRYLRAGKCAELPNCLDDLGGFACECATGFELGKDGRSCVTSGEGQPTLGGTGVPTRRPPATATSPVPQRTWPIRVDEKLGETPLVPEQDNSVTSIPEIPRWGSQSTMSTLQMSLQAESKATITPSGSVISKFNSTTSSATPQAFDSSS

T4: human CLEC14A, full length (human, UniProt Q86T13 22-490)
T4 construct: also called CLEC14A on HUVECs (endogenous); CHO cells expressing full length human CLEC14A
T4 sequence: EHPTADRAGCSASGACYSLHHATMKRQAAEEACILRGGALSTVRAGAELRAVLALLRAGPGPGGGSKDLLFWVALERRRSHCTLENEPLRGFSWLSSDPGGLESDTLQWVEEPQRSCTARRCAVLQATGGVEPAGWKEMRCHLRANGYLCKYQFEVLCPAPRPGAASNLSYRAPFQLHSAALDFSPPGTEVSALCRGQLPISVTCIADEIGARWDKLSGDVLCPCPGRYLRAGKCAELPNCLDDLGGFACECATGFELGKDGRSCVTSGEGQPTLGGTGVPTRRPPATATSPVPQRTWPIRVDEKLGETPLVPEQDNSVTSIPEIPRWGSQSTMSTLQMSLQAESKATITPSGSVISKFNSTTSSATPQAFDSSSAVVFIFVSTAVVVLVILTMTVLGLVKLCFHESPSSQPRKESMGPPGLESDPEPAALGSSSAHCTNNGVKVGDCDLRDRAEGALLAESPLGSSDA

T5: MMRN2 overexpressed in HEK293T cells (human, UniProt Q9H8L6 23-949)
T5 construct: Used as cell lysate; also called full-length human MMRN2 with a His tag; hMMRN2; not shown: His tag (vector pHL-Avitag3)
T5 sequence: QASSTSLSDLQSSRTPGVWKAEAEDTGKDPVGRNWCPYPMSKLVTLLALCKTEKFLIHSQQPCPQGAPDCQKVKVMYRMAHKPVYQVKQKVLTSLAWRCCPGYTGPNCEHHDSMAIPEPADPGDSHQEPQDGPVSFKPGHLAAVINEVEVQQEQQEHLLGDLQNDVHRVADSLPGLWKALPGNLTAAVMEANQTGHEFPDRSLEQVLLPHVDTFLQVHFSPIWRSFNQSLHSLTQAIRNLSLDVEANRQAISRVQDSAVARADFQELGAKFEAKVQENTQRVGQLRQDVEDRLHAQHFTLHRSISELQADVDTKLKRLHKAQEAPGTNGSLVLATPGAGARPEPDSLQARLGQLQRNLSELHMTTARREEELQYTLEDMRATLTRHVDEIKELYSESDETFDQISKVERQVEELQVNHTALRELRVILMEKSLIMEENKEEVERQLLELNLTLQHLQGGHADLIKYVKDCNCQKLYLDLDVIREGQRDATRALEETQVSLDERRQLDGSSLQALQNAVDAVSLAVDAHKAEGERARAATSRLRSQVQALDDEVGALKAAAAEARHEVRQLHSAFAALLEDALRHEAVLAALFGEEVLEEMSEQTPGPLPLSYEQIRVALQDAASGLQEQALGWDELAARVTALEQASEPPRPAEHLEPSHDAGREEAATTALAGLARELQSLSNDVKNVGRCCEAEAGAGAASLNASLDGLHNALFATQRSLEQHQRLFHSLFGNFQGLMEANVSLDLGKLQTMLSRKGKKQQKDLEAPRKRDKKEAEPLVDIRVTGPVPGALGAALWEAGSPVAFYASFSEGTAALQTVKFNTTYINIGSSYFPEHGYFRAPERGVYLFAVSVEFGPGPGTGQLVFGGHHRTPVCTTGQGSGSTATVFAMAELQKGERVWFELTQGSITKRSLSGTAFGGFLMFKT

B1: CLEC14A with regions 97-108 of CD141 (receptor)
chain: not shown
notes: also called this mutant

Key:
murine CLEC14A-Fc = target: T1, murine CLEC14A-Fc; test: ELISA, hybridoma supernatant on absorbed antigen
[1] = target: B1; test: flow cytometry, HEK293T 97-108 Chimera GFP, GFP-positive cells gated (R1)
[2] = target: T2, CLEC14A wild type with a C terminal GFP …; test: flow cytometry, HEK293T CLEC14A WT GFP, GFP-positive cells gated (R1); filled histogram is the control (files named IgG)
[3] = target: T6, wild type thrombomodulin with GFP tag (UniProt P07204 19-575); test: flow cytometry, HEK293T Thrombomodulin CD141 WT GFP, GFP-positive cells gated (R1)
T6 construct: whole, on cells; Expressed in HEK293T cells; also called WT CD141; CD141; not shown: C-terminal GFP tag

Chimera 5 = target: T7, Chimera 5; test: flow cytometry, HEK293T Chimera 5 GFP, GFP-positive cells gated (R1)
T7 construct: GFP fusion; also called CLEC14A with CTLD of CD141; CTLD of thrombomodulin, rest CLEC14A

Chimera 6 = target: T8, Chimera 6; test: flow cytometry, HEK293T Chimera 6 GFP, GFP-positive cells gated (R1); filled histogram is the control (files named IgG)
T8 construct: GFP fusion; also called CLEC14A with SUSHI of CD141; Sushi of thrombomodulin

human CLEC14A-ECD-Fc = target: T3, human CLEC14A-ECD-Fc; test: pre-incubation of CLEC14A-ECD-Fc with antibody before MMRN2 pull-down
Protocol: Human CLEC14A-ECD-Fc was bound to protein A beads, blocked in 20% FCS and then incubated with each blocking condition. This was then added to lysates of HEK293T cells overexpressing full-length human MMRN2 with a His tag. Pre-incubating with CRT1, CRT4 and CRT5 decreased the levels of MMRN2 pulled down by CLEC14A-ECD-Fc.
To determine which CLEC14A monoclonal antibodies could inhibit the binding of MMRN2 to CLEC14A, CLEC14A-ECD-Fc was pre-incubated with increasing concentrations of mIgG1, or CR1-5, prior to incubation with lysates from HEK293T cells overexpressing MMRN2. Precipitates were then separated and probed for MMRN2 or CLEC14A-ECD-Fc. […] This confirms that antibodies C1, 4 and 5 bind CLEC14a on an epitope that is distinct from the one that C2 and 3 monoclonal antibodies bind and thus specifically block the MMRN2 interaction with CLEC14A.

[4] = target: T4, human CLEC14A, full length; test: fluorescent imaging of HUVECs treated with the drug conjugate of CRT3, 0 and 90 minutes by the legend
Protocol: HUVECs were treated with CRT-3 ADC and fluorescent imaging was carried out to determine the localisation of CRT-3 after 0 and 90 minutes. Further, the cytotoxicity was measured using a Cell Titre Glo luminescent cell viability assay and the results are shown in FIG. 18B. As described above, 1 million Lewis lung carcinoma cells were injected subcutaneously into the right flank of 2 mice and allowed to grow to a visible size. 1 mg/kg of CRT-3-ADC or B12-ADC (control) was administered through tail vein injections.

[5] = target: T5, MMRN2 overexpressed in HEK293T cells; test: far Western blot of lysates of transfected HEK293T cells, probed with MMRN2 protein lysate
Source text: HEK293T cells were mock transfected or transfected with pCS2 vectors containing CLEC14A wild type (WT) or constructs with each major domain deleted (Δ) with an N-terminal HA tag. Upon far western blotting with MMRN2 protein lysate, binding can be seen in all mutants except those missing the C-type lectin domain (CTLD) or the sushi domain. An anti-HA blot was included to show all mutant proteins were expressed.

[6] = target: T5, MMRN2 overexpressed in HEK293T cells; test: method for MMRN2 not described

T7 sequence (chain, as listed by the source mutant limits assumed): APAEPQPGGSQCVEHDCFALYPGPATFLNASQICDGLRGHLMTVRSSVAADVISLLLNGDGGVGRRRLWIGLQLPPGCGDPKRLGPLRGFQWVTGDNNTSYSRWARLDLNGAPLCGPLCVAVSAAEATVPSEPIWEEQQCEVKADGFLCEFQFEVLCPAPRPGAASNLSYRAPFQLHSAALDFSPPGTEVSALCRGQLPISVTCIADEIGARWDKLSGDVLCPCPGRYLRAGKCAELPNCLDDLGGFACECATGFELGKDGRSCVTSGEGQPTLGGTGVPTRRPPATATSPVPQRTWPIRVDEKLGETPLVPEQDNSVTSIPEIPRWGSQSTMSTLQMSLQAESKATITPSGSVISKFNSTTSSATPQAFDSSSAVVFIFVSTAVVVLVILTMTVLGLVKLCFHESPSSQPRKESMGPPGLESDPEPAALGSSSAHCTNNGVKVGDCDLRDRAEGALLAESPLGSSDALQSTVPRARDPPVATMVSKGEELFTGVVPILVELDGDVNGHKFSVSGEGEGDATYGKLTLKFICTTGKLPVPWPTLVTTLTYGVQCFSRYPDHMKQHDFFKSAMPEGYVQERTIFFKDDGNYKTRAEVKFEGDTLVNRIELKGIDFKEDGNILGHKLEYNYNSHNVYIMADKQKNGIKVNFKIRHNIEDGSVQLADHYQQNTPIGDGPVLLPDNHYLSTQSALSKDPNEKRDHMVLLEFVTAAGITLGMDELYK
T6 sequence (P07204 19-575): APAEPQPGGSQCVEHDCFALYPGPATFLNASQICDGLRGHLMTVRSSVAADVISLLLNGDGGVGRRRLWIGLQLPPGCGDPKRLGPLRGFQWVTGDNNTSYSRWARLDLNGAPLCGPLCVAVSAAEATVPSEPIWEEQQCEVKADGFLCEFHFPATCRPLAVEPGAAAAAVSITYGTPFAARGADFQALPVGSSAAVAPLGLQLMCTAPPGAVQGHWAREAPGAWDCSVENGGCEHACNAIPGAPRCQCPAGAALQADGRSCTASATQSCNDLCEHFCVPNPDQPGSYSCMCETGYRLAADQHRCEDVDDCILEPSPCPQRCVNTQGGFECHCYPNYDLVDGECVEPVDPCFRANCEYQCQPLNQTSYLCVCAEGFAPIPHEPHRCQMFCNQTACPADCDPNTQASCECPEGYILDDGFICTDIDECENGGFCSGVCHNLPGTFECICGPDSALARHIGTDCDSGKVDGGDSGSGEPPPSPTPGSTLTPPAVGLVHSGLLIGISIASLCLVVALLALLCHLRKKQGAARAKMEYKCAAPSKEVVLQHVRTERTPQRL

binding result (murine CLEC14A-Fc) | binding result [1] | binding result [2] | binding result [3] | binding result (Chimera 5) | binding result (Chimera 6) | binding result (human CLEC14A-ECD-Fc) | binding result [4] | binding result [5] | binding result [6] | Binder
binds | no binding | binds | no binding | no binding | binds | binds | – | – | – | CRT1 (antibody, IgG1, V domains shown, also called C1; CR1) VH: EVQLQQSGAELMKPGASVKISCKATGYTFSSYWIEWVKQRPGHGLEWIGEILPGSGSTNYNEKFKGKATFTADTSSNTAYMQLSSLTSEDSAVYYCARGGDYDEEYYVMDYWGQGTSVTV VL: QIVLTQSPAIMSASPGEKVTMTCSASSSVSYMYWYQQKPGSSPRLLIYDTSNLASGVPVRFSGSGSGTSYSLTISRMEAEDAATYYCQQWSSYPLTFGAGTKLELKR
– | no binding | – | no binding | no binding | – | – | – | – | – | CRT4 (antibody, IgG1, V domains shown, also called C4) VH: QVQLQQSGAELMKPGASVKISCKATGYTFSSYWIEWVNRRPGHGLEWIGEILPGSGSTNYNEKFKGKATFTADTSSNTAYMQLSSLTSEDSAVYYCARGGDYDEEYYLMDYWGQGTTLTVSS VL: QIVLTQSPAIMSASPGEKVTMTCSASSSVSYMYWYQQKPGSSPRLLIYDTSNLASGVPVRFSGSGSGTSYSLTISRMEAEDAATYYCQQWSSYPLTFGAGTKLEIKR
– | no binding | – | no binding | no binding | – | – | – | – | – | CRT5 (antibody, IgG1, V domains shown, also called C5) VH: AEVQLQQSGAELMKPGASVKISCKATGYTFSSYWIEWVNQRPGHGLEWIGEILPGSGSTNYNEKFKGKATFTADTSSNTAYMQLSSLTSEDSAVYYCARGGDYDEEYYAMDYWGQGTSVTL VL: QIVLTQSPAIMSASPGEKVTMTCSASSSVSYMYWYQQKPGSSPRLLIYDTSNLASGVPVRFSGSGSGTSYSLTISRMEAEDGATYYCQQWSSYPLTFGAGTKLELKR
binds | – | binds | no binding | no binding | binds | binds | binds | – | – | CRT3 (antibody, IgG1, V domains shown, The VL entry ends with AAA from the cloning site; also called C3) VH: EVQLQQSGTVLARPGASVKMSCKASGYTFTSYWMHWVKQRPGQGLEWIGAIYPGNSDTSYNQKFKGKAKLTAVTSTSTAYMELSSLTNEDSAVFYCTHYYGSDYAMDYWGQGTSVTV VL: QIVLTQSPAIMSASLGERVTMTCTASSSVSSSYLHWYQQKPGSSPKLWIYSTSNLASGVPARFSGSGSGTSYSLTISSMEAEDAATYYCHQYHRSPRTFGGGTKLEIKR
– | – | – | – | – | – | – | – | binds | – | HA-CLEC14A (receptor, also called CLEC14A wild type (WT) with an N-terminal HA tag; not shown: N-terminal HA tag) EHPTADRAGCSASGACYSLHHATMKRQAAEEACILRGGALSTVRAGAELRAVLALLRAGPGPGGGSKDLLFWVALERRRSHCTLENEPLRGFSWLSSDPGGLESDTLQWVEEPQRSCTARRCAVLQATGGVEPAGWKEMRCHLRANGYLCKYQFEVLCPAPRPGAASNLSYRAPFQLHSAALDFSPPGTEVSALCRGQLPISVTCIADEIGARWDKLSGDVLCPCPGRYLRAGKCAELPNCLDDLGGFACECATGFELGKDGRSCVTSGEGQPTLGGTGVPTRRPPATATSPVPQRTWPIRVDEKLGETPLVPEQDNSVTSIPEIPRWGSQSTMSTLQMSLQAESKATITPSGSVISKFNSTTSSATPQAFDSSSAVVFIFVSTAVVVLVILTMTVLGLVKLCFHESPSSQPRKESMGPPGLESDPEPAALGSSSAHCTNNGVKVGDCDLRDRAEGALLAESPLGSSDA
– | – | – | – | – | – | – | – | – | no binding | B1
